Patent publication US20210269532A1

Assays:
[1] = biological target: cynomolgus AXL extracellular domain transiently expressed on CHO-S cells (cynomolgus); test: flow cytometry, serial dilution on CHO-S cells transiently expressing cynomolgus AXL ECD, AF647 anti-human IgG secondary, GeoMean (RL1-H)
[2] = biological target: human AXL extracellular domain transiently expressed on CHO-S cells (human) (UniProt P30530); test: flow cytometry, serial dilution on CHO-S cells transiently expressing human AXL ECD, AF647 anti-human IgG secondary, GeoMean (RL1-H)
Chain of human AXL extracellular domain transiently expressed on CHO-S cells (human) (P30530 26-451 limits assumed): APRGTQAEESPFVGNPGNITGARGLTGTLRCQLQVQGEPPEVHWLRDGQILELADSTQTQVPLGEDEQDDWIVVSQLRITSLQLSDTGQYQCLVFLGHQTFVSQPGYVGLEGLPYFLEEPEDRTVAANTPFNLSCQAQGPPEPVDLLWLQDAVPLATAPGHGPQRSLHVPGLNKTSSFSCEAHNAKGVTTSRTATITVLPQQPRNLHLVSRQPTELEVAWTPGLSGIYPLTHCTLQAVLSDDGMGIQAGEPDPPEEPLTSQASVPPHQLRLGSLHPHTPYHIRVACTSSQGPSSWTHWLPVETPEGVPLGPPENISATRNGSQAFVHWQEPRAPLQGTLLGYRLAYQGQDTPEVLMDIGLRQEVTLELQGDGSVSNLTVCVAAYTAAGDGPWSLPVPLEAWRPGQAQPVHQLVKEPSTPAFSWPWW

[3] = biological target: His-tagged human AXL extracellular domain (recombinant) (human) (UniProt P30530); test: SPR classical sandwich assay (IBIS MX96): 100 nM analyte over AXL-His ECD held by surface-captured 22995; white cell = sandwiching
Chain of His-tagged human AXL extracellular domain (recombinant) (human) (P30530 26-451): as the sequence (P30530 26-451 limits assumed) above

[4] = biological target: His-tagged human AXL extracellular domain (recombinant) (human) (UniProt P30530); test: SPR classical sandwich assay (IBIS MX96): 100 nM analyte over AXL-His ECD held by surface-captured 22883; white cell = sandwiching
[5] = biological target: His-tagged human AXL extracellular domain (recombinant) (human) (UniProt P30530); test: SPR classical sandwich assay (IBIS MX96): 100 nM analyte over AXL-His ECD held by surface-captured YW327.6S2 IgG1-LALA analogue; grey cell = blocked (self)
[6] = biological target: His-tagged human AXL extracellular domain (recombinant) (human) (UniProt P30530); test: SPR classical sandwich assay (IBIS MX96): 100 nM analyte over AXL-His ECD held by surface-captured 10G5 analogue; white cell = sandwiching
[7] = biological target: His-tagged human AXL extracellular domain (recombinant) (human) (UniProt P30530); test: SPR classical sandwich assay (IBIS MX96): 100 nM analyte over AXL-His ECD held by surface-captured 23203-1; white cell = sandwiching
[8] = biological target: His-tagged human AXL extracellular domain (recombinant) (human) (UniProt P30530); test: SPR classical sandwich assay (IBIS MX96): 100 nM analyte over AXL-His ECD held by the surface-captured Control antibody (f2); white cell = sandwiching

Chain of YW327.6S2 IgG1-LALA analogue (Genentech) (antibody) (VH): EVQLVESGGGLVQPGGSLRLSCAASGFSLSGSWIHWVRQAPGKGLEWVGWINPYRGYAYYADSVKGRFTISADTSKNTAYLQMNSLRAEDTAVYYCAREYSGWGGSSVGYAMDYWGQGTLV
Chain of YW327.6S2 IgG1-LALA analogue (Genentech) (antibody) (VL): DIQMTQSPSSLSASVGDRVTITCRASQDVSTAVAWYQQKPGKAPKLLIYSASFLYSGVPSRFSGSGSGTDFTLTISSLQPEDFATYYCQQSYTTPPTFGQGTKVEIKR

Substance | EC50 (read off the curve) [1] | EC50 (read off the curve) [2] | normalized SPR sandwich response [3] | normalized SPR sandwich response [4] | normalized SPR sandwich response [5] | normalized SPR sandwich response [6] | normalized SPR sandwich response [7] | normalized SPR sandwich response [8]
Ax225 IgG1-LALA analogue (Chugai) (antibody) | 0.05 µg/mL | 0.06 µg/mL | – | – | – | – | – | –
YW327.6S2 IgG1-LALA analogue (Genentech) (antibody) | – | – | 1.1 | 3.9 | 0 | 1.2 | 1.1 | 1.3
10G5 IgG1-LALA analogue (BerGenBio) (antibody) | 0.008 µg/mL | 0.006 µg/mL | – | – | – | – | – | –
